In IntAct's records for PubMed 16858409:

B1: Mitochondrial antiviral-signaling protein (Mus musculus), Q8VCF0 (parent)
chain: MTFAEDKTYKYIRDNHSKFCCVDVLEILPYLSCLTASDQDRLRASYRQIGNRDTLWGLFNNLQRRPGWVEVFIRALQICELPGLADQVTRVYQSYLPPGTSLRSLEPLQLPDFPAAVSGPSAFAPGHNIPDHGLRETPSCPKPVQDTQPPESPVENSEQLLQTNSGAVARMSGGSLIPSPNQQALSPQPSREHQEQEPELGGAHAANVASVPIATYGPVSPTVSFQPLPRTALRTNLLSGVTVSALSADTSLSSSSTGSAFAKGAGDQAKAATCFSTTLTNSVTTSSVPSPRLVPVKTMSSKLPLSSKSTAAMTSTVLTNTAPSKLPSNSVYAGTVPSRVPASVAKAPANTIPPERNSKQAKETPEGPATKVTTGGNQTGPNSSIRSLHSGPEMSKPGVLVSQLDEPFSACSVDLAISPSSSLVSEPNHGPEENEYSSFRIQVDESPSADLLGSPEPLATQQPQEEEEHCASSMPWAKWLGATSALLAVFLAVMLYRSRRLAQ
partner: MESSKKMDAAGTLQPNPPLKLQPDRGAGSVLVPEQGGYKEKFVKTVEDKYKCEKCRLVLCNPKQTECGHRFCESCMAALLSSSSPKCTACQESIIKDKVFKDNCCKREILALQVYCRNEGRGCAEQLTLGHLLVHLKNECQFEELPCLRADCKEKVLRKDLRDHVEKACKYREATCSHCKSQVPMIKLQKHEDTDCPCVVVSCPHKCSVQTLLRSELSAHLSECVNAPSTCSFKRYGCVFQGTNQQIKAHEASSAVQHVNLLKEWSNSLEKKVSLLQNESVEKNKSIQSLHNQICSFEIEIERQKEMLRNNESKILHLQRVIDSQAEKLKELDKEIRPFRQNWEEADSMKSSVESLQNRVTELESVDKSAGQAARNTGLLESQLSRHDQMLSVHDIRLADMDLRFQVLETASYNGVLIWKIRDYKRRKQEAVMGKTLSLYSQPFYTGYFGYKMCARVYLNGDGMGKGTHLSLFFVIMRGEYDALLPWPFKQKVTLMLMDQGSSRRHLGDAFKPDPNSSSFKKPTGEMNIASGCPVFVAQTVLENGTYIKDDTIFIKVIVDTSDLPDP
B2: TNF receptor-associated factor 3 (Mus musculus), Q60803 (parent)
chain: B1 partner
partner: B1 chain

Variants of: B1
Conditions: with traf3_mouse Traf3, Q60803

Variant | effect of a mutation on the interaction
T147I | disrupting interaction

Variants of: B2
Conditions: with mavs_mouse Mavs

Variant | effect of a mutation on the interaction
Y440A | disrupting interaction
Q442A | disrupting interaction
